Results from US20220153864A1 (Pieris, published 2022).

Assays:
[1] = target: T1, recombinant cynomolgus GPC3 (cyGPC3) (R&D Systems) (cynomolgus, UniProt A0A2K5VK50 24-558); assay: ELISA, cyGPC3 coated
Protocol: Recombinant huGPC3 (R&D Systems) at the concentration of 1 μg/mL in PBS was coated overnight on microtiter plates at 4° C. After five washes with 100 μL PBS-0.05% T (PBS supplemented with 0.05% (v/v) Tween 20), the plates were blocked with 2% BSA (w/v) in PBS-0.1% T (PBS-0.1% T-2% BSA) for 1 h at room temperature. After washing with 100 μL PBS-0.05% T (PBS supplemented with 0.05% (v/v) Tween 20) five times, exemplary fusion proteins (SEQ ID NOs: 87 and […] and CD137Ac1-Fusion 1 to 7) or the GPC3 antibody as include in the fusion proteins (SEQ ID NOs: 81 and 82) at different concentrations were added to the wells and incubated for 1 h at room temperature, followed by another wash step. Bound molecules under study were detected by incubation with 1:5000 diluted anti-human IgG Fc-HRP (Jackson Laboratory) in PBS-0.1% T-2% BSA. After an additional wash step, fluorogenic HRP substrate (QuantaBlu, Thermo) was added to each well and the fluorescence intensity was detected using a fluorescence microplate reader.
The same ELISA setup was also employed to determine the binding potency of fusion proteins to cynomolgus GPC3 and huCD137, where recombinant cyGPC3 (R&D Systems) or huCD137-His (recombinant human CD137 with C-terminal polyhistidine tag, R&D Systems) was instead coated on a microtiter plate. The testing agents were similarly titrated and bound agents were detected via anti-NGAL-HRP. […]

[2] = target: T2, human GPC3 expressed on cells (SK-Hep1::huGPC3; HepG2, Hep3B and MKN-45 tumor cells) (human, UniProt P51654 25-554); assay: flow cytometry on Hep3B tumor cells (GPC3 positive)
T2 construct: whole, on cells; also called GPC3-positive tumor cells; human GPC3-expressing cells
Protocol: (§1) 5×10⁴ cells per well were incubated for 1 h in ice-cold PBS containing 5% fetal calf serum (PBS-FCS). A dilution series of the testing molecule were added to the cells and incubated for 1 h on ice. Cells were washed twice with PBS and then incubated with a goat anti-hlgG Alexa647-labeled antibody or goat anti-hlgG Alexa488-labeled antibody for 30 min on ice. Cells were subsequently washed and analyzed using iQue Flow cytometer (Intellicyte Screener). Mean geometric fluorescent signals were plotted and fitted with Graphpad software. The geometric means of the fluorescence intensity were used to calculate EC₅₀ values using a four-parameter logistic regression with bottom fixed to background.
For flow cytometric analysis, tumor cell lines with different GPC3 expression levels (high to moderate expression: HepG2>Hep3B>MKN-45) and GPC3 negative cell line NCI-N87 were incubated with an exemplary fusion protein SEQ ID NOs: 87 and 82, the GPC3 antibody or the CD137 specific lipocalin mutein (Fc fusion) as included in the fusion protein (SEQ ID NOs: 81 and 82 and SEQ ID NO: 98, respectively), a reference CD137 antibody SEQ ID NOs: 26 and 27, or an isotype control (SEQ ID NO: 24 and 25), and detected using a fluorescently labeled anti-human IgG antibody as described in Example 6.

[3] = target: T2, human GPC3 expressed on cells …; assay: flow cytometry on SK-Hep1::huGPC3 cells, anti-human IgG detection
Protocol: (§2) For flow cytometric analysis, respective cell lines were incubated with an exemplary fusion protein (SEQ ID NOs: 87 and 82), the GPC3 antibody or the CD137 specific lipocalin mutein (Fc fusion) as included in the fusion protein (SEQ ID NOs: 81 and 82 and SEQ ID NO: 98, respectively), a reference CD137 antibody SEQ ID NOs: 26 and 27, or an isotype control (SEQ ID NOs: 24 and 25) and detected using a fluorescently labeled anti-human IgG antibody in FACS analysis as described in the following:
as §1

[4] = target: T3, human CD137 expressed on cells (Flp-In-CHO::huCD137; NFkB-luc2/CD137 Jurkat cells) (human, UniProt Q07011 24-255); assay: flow cytometry on Flp-In-CHO::huCD137 cells, anti-human IgG detection
T3 construct: whole, on cells; also called human CD137-expressing cells
Protocol: as §2, §1

[5] = target: T1, recombinant cynomolgus GPC3 (cyGPC3) …; assay: SPR (Biacore T200), binder captured by anti-human IgG Fc, cyGPC3 as analyte, 1:1 model
Protocol: The anti-human IgG Fc antibody (GE Healthcare) was immobilized on a CM5 sensor chip using standard amine chemistry: the carboxyl groups on the chip were activated using 1-ethyl-3-(3-dimethylaminopropyl)-carbodiimide (EDC) and N-hydroxysuccinimide (NHS). Subsequently, anti-human IgG Fc antibody solution (GE Healthcare) at a concentration of 25 μg/mL in 10 mM sodium acetate (pH 5.0) was applied at a flow rate of 5 μL/min until an immobilization level of 6000-10000 resonance units (RU) was achieved. Residual non-reacted NHS-esters were blocked by passing a solution of 1M ethanolamine across the surface. The reference channel was treated in an analogous manner. Subsequently, testing fusion proteins (SEQ ID NOs: 87 and 82 and CD137Ac1-Fusion 1) or the GPC3 antibody as included in the fusion protein (SEQ ID NOs: 81 and 82) at 0.2 μg/ml in HBS-EP+ buffer was captured by the anti-human IgG-Fc antibody at the chip surface for 180 s at a flow rate of 10 μL/min. After each capture step, the needle was washed.
The binding assay was carried out with a contact time of 180 s, a dissociation time of 900 s, and a flow rate of 30 μL/min. After each injection, the needle was cleaned with 40 mM NaOH+20% isopropanol. All measurements were performed at 25° C. […] Prior to the protein measurements, three startup cycles were performed for conditioning purposes. Data were evaluated with Biacore T200 Evaluation software (v2.0). Double referencing was used and the 1:1 binding model was used to fit the raw data.

T2 sequence (P51654 25-554 limits assumed): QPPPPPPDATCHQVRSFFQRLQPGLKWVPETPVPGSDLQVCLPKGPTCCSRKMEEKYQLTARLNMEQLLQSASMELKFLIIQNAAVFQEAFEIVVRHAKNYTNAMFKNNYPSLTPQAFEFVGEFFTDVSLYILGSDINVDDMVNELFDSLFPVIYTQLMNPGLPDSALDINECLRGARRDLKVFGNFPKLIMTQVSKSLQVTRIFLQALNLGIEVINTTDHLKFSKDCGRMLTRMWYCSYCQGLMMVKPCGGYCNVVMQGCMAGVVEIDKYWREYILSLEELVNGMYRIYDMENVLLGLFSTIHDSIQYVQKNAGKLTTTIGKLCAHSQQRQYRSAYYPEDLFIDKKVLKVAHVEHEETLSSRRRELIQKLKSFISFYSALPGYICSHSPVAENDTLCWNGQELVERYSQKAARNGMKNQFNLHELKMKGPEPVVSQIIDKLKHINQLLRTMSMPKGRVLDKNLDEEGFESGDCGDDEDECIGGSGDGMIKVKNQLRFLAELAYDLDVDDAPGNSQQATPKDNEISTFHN
T3 sequence (Q07011 24-255): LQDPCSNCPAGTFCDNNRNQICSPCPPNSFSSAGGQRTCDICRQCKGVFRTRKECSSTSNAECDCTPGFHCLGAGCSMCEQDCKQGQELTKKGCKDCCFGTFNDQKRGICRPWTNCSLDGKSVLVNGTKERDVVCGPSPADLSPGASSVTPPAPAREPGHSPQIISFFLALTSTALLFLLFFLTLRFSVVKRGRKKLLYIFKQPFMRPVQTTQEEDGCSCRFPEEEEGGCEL

- EC50 [1]: 0.34 nM
- EC50 [2]: 7.92 nM
- EC50 [3]: 23.2 nM
- EC50 [4]: 13.1 nM
- Kd [5]: 0.936 nM
- koff [5]: 0.000275 s⁻¹
- kon [5]: 293000 M⁻¹ s⁻¹
B1: fusion protein SEQ ID NOs: 87 and 82 (bispecific antibody, human IgG4 S228P, kappa, F234A L235A)
heavy: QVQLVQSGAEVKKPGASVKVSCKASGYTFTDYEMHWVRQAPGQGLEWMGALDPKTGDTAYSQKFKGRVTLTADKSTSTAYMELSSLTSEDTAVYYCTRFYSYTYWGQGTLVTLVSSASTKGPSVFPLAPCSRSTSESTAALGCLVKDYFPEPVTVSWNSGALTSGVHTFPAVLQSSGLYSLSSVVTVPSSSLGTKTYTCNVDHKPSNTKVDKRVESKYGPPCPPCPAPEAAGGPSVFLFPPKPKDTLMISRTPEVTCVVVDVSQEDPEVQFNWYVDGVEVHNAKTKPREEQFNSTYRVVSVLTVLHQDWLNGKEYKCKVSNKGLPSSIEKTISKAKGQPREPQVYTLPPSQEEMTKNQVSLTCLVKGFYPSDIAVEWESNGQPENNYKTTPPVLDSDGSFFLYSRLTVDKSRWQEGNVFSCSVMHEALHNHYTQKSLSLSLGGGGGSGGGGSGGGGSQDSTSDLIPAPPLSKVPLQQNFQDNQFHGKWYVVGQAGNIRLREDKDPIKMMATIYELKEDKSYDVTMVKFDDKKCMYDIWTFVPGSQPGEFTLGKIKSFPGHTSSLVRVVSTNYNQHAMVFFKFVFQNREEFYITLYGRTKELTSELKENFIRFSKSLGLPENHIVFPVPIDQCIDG
light: DVVMTQSPLSLPVTPGEPASISCRSSQSLVHSNRNTYLHWYLQKPGQSPQLLIYKVSNRFSGVPDRFSGSGSGTDFTLKISRVEAEDVGVYYCSQNTHVPPTFGQGTKLEIKRTVAAPSVFIFPPSDEQLKSGTASVVCLLNNFYPREAKVQWKVDNALQSGNSQESVTEQDSKDSTYSLSSTLTLSKADYEKHKVYACEVTHQGLSSPVTKSFNRGEC
notes: also called exemplary fusion protein
